Assay [1] has as its target T1, mouse SIRPA variant hmSIRPA_Δ1 (mouse (with human residues), UniProt P97797 35-513).
T1 construct: FLAG-tagged (pFLAG V5-DEST), on 293α cells
T1 chain: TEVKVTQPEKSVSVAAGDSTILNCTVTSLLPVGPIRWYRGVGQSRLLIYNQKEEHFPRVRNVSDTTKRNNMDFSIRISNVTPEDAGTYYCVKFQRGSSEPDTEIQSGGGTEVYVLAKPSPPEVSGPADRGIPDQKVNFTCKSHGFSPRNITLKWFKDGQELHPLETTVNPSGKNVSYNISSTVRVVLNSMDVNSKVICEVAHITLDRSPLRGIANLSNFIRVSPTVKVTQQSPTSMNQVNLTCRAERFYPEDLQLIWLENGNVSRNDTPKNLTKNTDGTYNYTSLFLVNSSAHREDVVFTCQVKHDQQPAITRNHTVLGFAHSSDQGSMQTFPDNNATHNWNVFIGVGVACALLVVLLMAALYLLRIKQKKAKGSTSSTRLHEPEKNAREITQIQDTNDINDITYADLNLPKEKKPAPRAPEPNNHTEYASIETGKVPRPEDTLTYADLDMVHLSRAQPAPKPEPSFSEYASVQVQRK
Nature of the assay: cell-based ELISA on 293α cells expressing FLAG-tagged hmSIRPA_Δ1; Abs 490 normalized to FLAG tag [ii]. On the procedure: After the culture supernatant of 293α cells into which the pFLAG V5-DEST-hmSIRPA_Δ0, Δ1, and Δ2 expression vector prepared in 2)-1-2-2 was introduced and the pFLAG V5-DEST-introduced 293α cells was removed, 50 μL per well of four different D13 humanized anti-human SIRPA antibodies and a chimeric anti-human SIRPA antibody diluted with 5% FBS-containing PBS to a final concentration of 10,000 ng/mL were added to these cells, and the mixture was allowed to stand at 4° C. for one hour. Further, 50 μL per well of an anti-FLAG M2 antibody (SIGMA) diluted with 5% FBS-containing PBS to a final concentration of 10,000 ng/mL was added to a well for detecting expression of each SIRPA construct, and the mixture was allowed to stand at 4° C. for one hour. Thereafter, binding to each construct was evaluated in the same manner as in the evaluation of the binding activity of the human SIRPA. Binding of anti-human SIRPA antibodies to each construct was standardized by expression of the FLAG tag.

In assay [2] the target is T2, SIRPA_V1_IgV (human, UniProt P78324 31-149).
T2 construct: Secreted recombinant protein from FreeStyle 293F cells
T2 sequence (P78324 other isoform, or with tags, fused parts or gaps limits assumed): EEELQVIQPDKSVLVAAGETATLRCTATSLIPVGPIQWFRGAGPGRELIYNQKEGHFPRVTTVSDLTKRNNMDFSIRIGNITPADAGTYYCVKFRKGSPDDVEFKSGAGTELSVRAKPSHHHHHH
In words: SPR Biacore T200, antibody captured, SIRPA_V1_IgV as analyte, 1:1 model. The procedure:
The dissociation constants of the cD13, cF44, and cF63 prepared in Example 4 against the human SIRPA_V1_IgV prepared in Example 1 were determined by a capture method comprising capturing a human chimeric antibody as a ligand and measuring an antigen as an analyte, using Biacore T200 (GE Healthcare Bioscience Corp.). HBS-EP+ (GE Healthcare Bioscience Corp.) was used as a running buffer, and CM5 (GE Healthcare Bioscience Corp.) was used as a sensor chip. In an amount of 1 μg/mL human chimeric antibody was added onto a chip at a rate of 10 μL/min for 60 seconds, a serially diluted solution of human SIRPA protein as an antigen (0.5 to 8 μg/mL) was added at a flow rate of 30 μL/min for 120 seconds, and the dissociation phase continued to be monitored for 600 seconds. As a regenerant, 3 M magnesium chloride (GE Healthcare Bioscience Corp.) was added at a flow rate of 20 μL/min for 30 seconds. For data analysis, the binding rate constant (ka), dissociation rate constant (kd), and dissociation constant (KD; KD=kd/ka) were calculated using a 1:1 binding model.

For assay [3], the target named is T3, human SIRPA_V2 protein (human, UniProt P78324 31-504).
T3 construct: Expressed on 293α cells from pcDNA3.2 V5-DEST or pFLAG V5-DEST (FLAG-tagged) vectors; also called human SIRPA Variant 2; ECD variant (full-length, amino acids 1 to 504)
In words: cell-based ELISA on 293α cells expressing FLAG-tagged SIRPA_V2; Abs 490 normalized to FLAG tag. On the procedure:
The 293α cells [described in Example 1)-6] were prepared in a 10% FBS-containing DMEM medium to 5×10⁵ cells/mL. pFLAG V5-DEST-SIRPA_V1, pFLAG V5-DEST-SIRPA_V2, or pFLAG V5-DEST was introduced into the cells using Lipofectamine LTX (Invitrogen), followed by addition of 100 μL per well to a 96-well plate (Corning Incorporated), and cells were cultured overnight in the 10% FBS-containing DMEM medium at 37° C. under a 5% CO₂ condition. The obtained introduced cells were used for cell-based ELISA in a state that they adhered to each other. After the culture supernatant was removed, 50 μL per well of the cD13 (IgG2 and IgG4pf), cF44 (IgG1, IgG2, IgG4p, and IgG4pf), and cF63 (IgG2 and IgG4pf) antibodies prepared in Examples 3 and 4 were added to each of pFLAG V5-DEST-SIRPA_V1, pFLAG V5-DEST-SIRPA_V2, or pFLAG V5-DEST-introduced cells at final concentrations of 0 to 10,000 ng/mL, and the mixture was allowed to stand at 4° C. for one hour. Further, 50 μL per well of anti-FLAG M2 antibody (SIGMA) diluted with 5% FBS-containing PBS to a final concentration of 10,000 ng/mL was added to a well for detecting expression of each SIRPA construct, and the mixture was allowed to stand at 4° C. for one hour. The cells in the well were washed once with 5% FBS-containing PBS, followed by addition of Peroxidase AffiniPure F(ab′)₂ Fragment Goat Anti-Human IgG, Fcγ Fragment Specific (Jackson ImmunoResearch) diluted 1000-fold with 5% FBS-containing PBS, and the mixture was allowed to stand at 4° C. for one hour. The cells in the well were washed five times with 5% FBS-containing PBS, followed by addition of 100 μL per well of an OPD coloration solution [o-phenylenediamine dihydrochloride (Wako Pure Chemical Industries, Ltd.) and H₂O₂ were dissolved in an OPD solution (0.05 M trisodium citrate, 0.1 M disodium hydrogen phosphate dodecahydrate, pH 4.5) at 0.4 mg/mL and 0.6% (v/v), respectively]. A coloration reaction was performed with stirring occasionally, 100 μL per well of 1 M HCl was added to terminate the coloration reaction, and then absorbance at 490 nm was measured with a plate reader ARVO (PerkinElmer Inc.). Binding of the human chimeric anti-human SIRPA antibodies to each construct was standardized by expression of the FLAG tag.
Target sequence in this assay (P78324 other isoform, or with tags, fused parts or gaps limits assumed): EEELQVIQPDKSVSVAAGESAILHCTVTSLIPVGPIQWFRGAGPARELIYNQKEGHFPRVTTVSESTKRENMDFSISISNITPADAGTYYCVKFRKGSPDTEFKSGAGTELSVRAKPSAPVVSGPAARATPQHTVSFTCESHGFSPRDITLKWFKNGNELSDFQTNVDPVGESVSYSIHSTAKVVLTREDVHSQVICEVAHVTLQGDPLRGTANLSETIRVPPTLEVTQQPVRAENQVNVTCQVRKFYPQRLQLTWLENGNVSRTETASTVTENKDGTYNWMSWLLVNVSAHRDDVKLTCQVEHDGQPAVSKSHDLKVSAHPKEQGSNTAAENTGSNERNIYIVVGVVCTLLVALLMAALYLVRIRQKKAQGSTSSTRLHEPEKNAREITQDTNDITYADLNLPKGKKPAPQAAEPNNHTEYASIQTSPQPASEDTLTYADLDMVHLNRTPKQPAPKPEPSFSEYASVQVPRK

Assay [4] deals with T3, human SIRPA_V2 protein. In words: blocking cell-based ELISA: peroxidase-labeled CD47-Fc (10,000 ng/mL) on 293α cells expressing SIRPA_V2; y axis = CD47-Fc signal in % of no antibody [ii].

B1: humanized anti-SIRPA antibody hD13_H1L3 (antibody, human IgG4 S228P, kappa, F234A L235A, V domains shown)
VH: QVQLVESGGGVVQPGRSLRLSCAASGFTFSDYGMIWVRQAPGKGLEWVASISSSSSYIYYADSVKGRFTISRDNSKNRLYLQMNSLRAEDTAVYYCARRYYGFNYPFDYWGQGTMVTVSS
VL: DTQLTQSPSSLSASVGQRVTITCGASKSVRTYMHWYQQKPGKQPKLLIYSASNLEAGVPSRFSGSGSGTDFTLTISSLQPEDFATYYCQQSNEPPYTFGQGTKLEIKR
notes: hH1 heavy chain (IgG4proFALA) and hL3 kappa light chain; also called hD13_HIL3; HIL3 antibody
Take B1: the binding result in assay [1] is on record as “no binding (tested: 10000 ng/mL)”.

B2: humanized anti-SIRPA antibody hD13_H2L3 (antibody, human IgG4 S228P, kappa, F234A L235A, V domains shown)
VH: EVQLVESGGGVVQPGRSLRLSCAASGFTFSDYGMIWVRQAPGKGLEWVASISSSSSYIYYADSVKGRFTISRDNSKNTLYLQMNSLRAEDTAVYYCARRYYGFNYPFDYWGQGTMVTVSS
VL: DTQLTQSPSSLSASVGQRVTITCGASKSVRTYMHWYQQKPGKQPKLLIYSASNLEAGVPSRFSGSGSGTDFTLTISSLQPEDFATYYCQQSNEPPYTFGQGTKLEIKR
notes: hH2 heavy chain (IgG4proFALA) and hL3 kappa light chain; also called H2L3 antibody
As to B2, the binding result in assay [1] was “no binding (tested: 10000 ng/mL)”.

B3: humanized anti-SIRPA antibody hD13_H2L2 (antibody, human IgG4 S228P, kappa, F234A L235A, V domains shown)
VH: EVQLVESGGGVVQPGRSLRLSCAASGFTFSDYGMIWVRQAPGKGLEWVASISSSSSYIYYADSVKGRFTISRDNSKNTLYLQMNSLRAEDTAVYYCARRYYGFNYPFDYWGQGTMVTVSS
VL: AIQLTQSPSSLSASVGQRVTITCGASKSVRTYMHWYQQKPGKAPKLLIYSASNLEAGVPSRFSGSGSGTDFTLTISSLQPEDFATYYCQQSNEPPYTFGQGTKLEIKR
notes: hH2 heavy chain (IgG4proFALA) and hL2 kappa light chain; also called H2L2 antibody
In the case of B3, the binding result in assay [1] is reported as “no binding (tested: 10000 ng/mL)”.

B4: humanized anti-SIRPA antibody hD13_H1L4 (antibody, human IgG4 S228P, kappa, F234A L235A, V domains shown)
VH: QVQLVESGGGVVQPGRSLRLSCAASGFTFSDYGMIWVRQAPGKGLEWVASISSSSSYIYYADSVKGRFTISRDNSKNRLYLQMNSLRAEDTAVYYCARRYYGFNYPFDYWGQGTMVTVSS
VL: DTVLTQSPDSLAVSLGQRATINCGASKSVRTYMHWYQQKPGQQPKLLIYSASNLEAGVPSRFSGSGSGTDFTLTISSLQAEDVAVYYCQQSNEPPYTFGQGTKVEIKR
notes: hH1 heavy chain (IgG4proFALA) and hL4 kappa light chain; also called hD13_HIL4; hD13_HIL4h
As to B4, in assay [1], the binding result is “no binding (tested: 10000 ng/mL)”.

B5: human chimeric anti-SIRPA antibody cD13 (antibody, human IgG4 S228P, kappa, F234A L235A, V domains shown)
VH: EVQLVESGGGLVQPGRSLKLSCLASGFTFSDYGMIWVRQAPGKGLEWVASISSSSSYIYYADTVKGRFTISRENAKNTLFLHMTSLRSEDTALYYCARRYYGFNYPFDYWGQGVMVTVSS
VL: DTVLTQSPALAVSLGQRVTISCGASKSVRTYMHWYQQKSGQQPKLLIYSASNLEAGVPSRFSGSGSGTDFTLTIDPVEADDIANYYCQQSNEPPYTFGAGTKLELKR
notes: Human IgG4proFALA heavy chain, human kappa light chain; also called cD13 (IgG4pf); human chimeric antibody D13
In assay [2], B5 yielded a Kd of 0.0811 nM. For the same molecule, the “EC50 (read off the curve)” value in assay [3] is around 0.05 µg/mL. Further, in assay [1], the binding result was “no binding (tested: 10000 ng/mL)”. Further, the “IC50 (read off the curve)” value in assay [4] is around 0.3 µg/mL.

Values taken from patent publication US20260098102A1 (NATIONAL UNIVERSITY CORPORATION KOBE UNIVERSITY, published 2026).
